Measurements reported in publication PMC9772228, “Structure of a RecT/Redβ family recombinase in complex with a duplex intermediate of DNA annealing”.
Substitutions are numbered along the chain they refer to.

Assays:
Assay in all cases: EMSA; EMSA: PBS pH 7.4 (or KH2PO4/10 mM MgCl2 pH 6.0), 3.6 or 5 uM protein, 25 uM nt DNA, 37 C 15 min per strand, 0.8% agarose 1x TBE; cryo-EM: 20 mM KH2PO4 (Results: 10 mM), 10 mM MgCl2 pH 6.0, 37 C; native MS: 100 mM ammonium acetate pH 7, 37 C
Settings in all cases: protein: recombinant, tags: N-terminal 6His vector tag (20 aa) retained, chain copies: 10
[1] = target: T1, LiRecT Q107H (Listeria innocua CLIP 11262, UniProt Q92FL9 1-271, Q107H)
T1 sequence: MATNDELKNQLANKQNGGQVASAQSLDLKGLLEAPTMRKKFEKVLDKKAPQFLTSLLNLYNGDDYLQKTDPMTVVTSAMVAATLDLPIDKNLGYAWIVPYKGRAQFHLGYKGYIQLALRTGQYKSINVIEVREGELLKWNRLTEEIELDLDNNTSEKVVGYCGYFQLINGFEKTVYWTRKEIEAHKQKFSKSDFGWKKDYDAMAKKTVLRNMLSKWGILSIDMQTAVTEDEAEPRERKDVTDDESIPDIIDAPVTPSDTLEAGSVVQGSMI

[2] = target: T2, LiRecT K157A (Listeria innocua CLIP 11262, UniProt Q92FL9 1-271, K157A)
T2 sequence: T1 sequence with H107Q, K157A

[3] = target: T3, LiRecT V98A/Y100A/Q107A (Listeria innocua CLIP 11262, UniProt Q92FL9 1-271, V98A;Y100A;Q107A)
T3 sequence: T1 sequence with V98A, Y100A, H107A

[4] = target: T4, LiRecT K215A/W216A (Listeria innocua CLIP 11262, UniProt Q92FL9 1-271, K215A;W216A)
T4 sequence: T1 sequence with H107Q, K215A, W216A

[5] = target: T5, LiRecT Y100E (Listeria innocua CLIP 11262, UniProt Q92FL9 1-271, Y100E)
T5 sequence: T1 sequence with Y100E, H107Q

[6] = label: 5'-Cy3;5'-Cy5, 49 bp, 1 nt 5' overhang at each end

CCATCCGCAAAAATCGAGCTATGCAGGGCGATTCTGCTCTAAGCCATCCG (ssDNA) [Cy5-50mer]: binds ([1]; label: 5'-Cy5, single strand); binds ([2]; label: 5'-Cy5, single strand); binds ([3]; label: 5'-Cy5, single strand). CCATCCGCAAAAATCGAGCTATGCAGGGCGATTCTGCTCTAAGCCATCCG (ssDNA) [Cy5-50mer]: no binding ([4]; label: 5'-Cy5, single strand); binds ([5]; label: 5'-Cy5, single strand).

B1: 50-mer duplex intermediate (sequential addition) (dsDNA)
DNA 1: GCGGATGGCTTAGAGCAGAATCGCCCTGCATAGCTCGATTTTTGCGGATG
DNA 2: CCATCCGCAAAAATCGAGCTATGCAGGGCGATTCTGCTCTAAGCCATCCG
B1: binds [1, 6]; binds [2, 6]; binds [3, 6]. B1: no binding [4, 6]; binds [5, 6].

GCGGATGGCTTAGAGCAGAATCGCCCTGCATAGCTCGATTTTTGCGGATG (ssDNA) [Cy3-50mer]: binds ([1]; label: 5'-Cy3, single strand); binds ([2]; label: 5'-Cy3, single strand); binds ([3]; label: 5'-Cy3, single strand). GCGGATGGCTTAGAGCAGAATCGCCCTGCATAGCTCGATTTTTGCGGATG (ssDNA) [Cy3-50mer]: no binding ([4]; label: 5'-Cy3, single strand); binds ([5]; label: 5'-Cy3, single strand).
